Data as given in publication PMC5515408, “Sequence-specific DNA binding by MYC/MAX to low-affinity non-E-box motifs”.

Columns and labels:
MAX:MAX (p21) [1] = target: T1, MAX:MAX (p21) (human, UniProt P61244-2 1-151); experiment: competition; labeled CME probe; EMSA: 10 ul, 0.5 pmol probe, 80 ng poly(dA-dT):(dA-dT), 375 ng/ul BSA, 15 mM Tris-HCl pH 7.9, 100 mM KCl, 15% glycerol, 0.15 mM EDTA, 0.075% NP-40, 7.5 mM 2-mer; conditions: protein: recombinant; tags: 6xHis; chain copies: 2; annealed complementary oligos
MAX:MAX (p21) [2] = target: T1, MAX:MAX (p21); experiment: competition; labeled CME probe; stronger than NE; EMSA: 10 ul, 0.5 pmol probe, 80 ng poly(dA-dT):(dA-dT), 375 ng/ul BSA, 15 mM Tris-HCl pH 7.9, 100 mM KCl, 15% glycerol, 0.15 mM EDTA, 0.075% NP-40, 7.5 mM 2-mer; conditions: protein: recombinant; tags: 6xHis; chain copies: 2; annealed complementary oligos
MAX:MAX (p21) [3] = target: T1, MAX:MAX (p21); experiment: EMSA; EMSA: 10 ul, 0.5 pmol probe, 80 ng poly(dA-dT):(dA-dT), 375 ng/ul BSA, 15 mM Tris-HCl pH 7.9, 100 mM KCl, 15% glycerol, 0.15 mM EDTA, 0.075% NP-40, 7.5 mM 2-mer; conditions: protein: recombinant; tags: 6xHis; chain copies: 2; label: 32P (Klenow fill-in with [alpha-32P]dGTP) as probe; annealed complementary oligos; probe Klenow-filled
[4] = target: T2, MYC (p64);MAX (p21), in MYC:MAX (human;human, UniProt P01106-1;P61244-2 1-439;1-151, |); experiment: as above; conditions: protein: recombinant;recombinant; tags: 6xHis;6xHis; copies: 1;1; label: 32P (Klenow fill-in with [alpha-32P]dGTP) as probe; annealed complementary oligos; probe Klenow-filled
MAX:MAX (p21) [5] = target: T1, MAX:MAX (p21); experiment: EMSA competition; EMSA: 10 ul, 0.5 pmol probe, 80 ng poly(dA-dT):(dA-dT), 375 ng/ul BSA, 15 mM Tris-HCl pH 7.9, 100 mM KCl, 15% glycerol, 0.15 mM EDTA, 0.075% NP-40, 7.5 mM 2-mer; conditions: protein: recombinant; tags: 6xHis; chain copies: 2; label: 32P (Klenow fill-in with [alpha-32P]dGTP) as probe; annealed complementary oligos; probe Klenow-filled
[6] = target: T2, MYC (p64);MAX (p21), in MYC:MAX; experiment: as above; conditions: protein: recombinant;recombinant; tags: 6xHis;6xHis; copies: 1;1; label: 32P (Klenow fill-in with [alpha-32P]dGTP) as probe; annealed complementary oligos; probe Klenow-filled

T2 sequence (P01106 16-454, chain 1 of 2): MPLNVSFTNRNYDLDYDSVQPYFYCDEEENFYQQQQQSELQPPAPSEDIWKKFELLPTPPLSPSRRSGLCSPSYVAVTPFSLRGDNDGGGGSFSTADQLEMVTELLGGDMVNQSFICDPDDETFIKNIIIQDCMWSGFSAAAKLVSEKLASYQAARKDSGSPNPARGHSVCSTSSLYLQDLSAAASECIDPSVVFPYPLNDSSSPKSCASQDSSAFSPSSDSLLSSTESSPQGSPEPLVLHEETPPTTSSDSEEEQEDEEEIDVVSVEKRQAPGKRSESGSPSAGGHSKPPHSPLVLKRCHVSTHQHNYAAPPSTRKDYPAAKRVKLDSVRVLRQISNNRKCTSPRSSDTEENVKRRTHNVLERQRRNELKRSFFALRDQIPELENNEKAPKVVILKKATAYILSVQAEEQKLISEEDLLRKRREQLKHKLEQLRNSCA
T2 sequence (P61244 other isoform, or with tags, fused parts or gaps |, chain 2 of 2): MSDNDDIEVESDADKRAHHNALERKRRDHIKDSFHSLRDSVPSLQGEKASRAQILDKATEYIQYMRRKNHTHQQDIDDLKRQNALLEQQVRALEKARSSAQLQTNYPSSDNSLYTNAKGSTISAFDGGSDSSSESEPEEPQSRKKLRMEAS
T1 sequence (P61244 other isoform, or with tags, fused parts or gaps): as the sequence (P61244 other isoform, or with tags, fused parts or gaps |, chain 2 of 2) above

B1: NE-V2 (dsDNA)
DNA 1: CCGGCTGAGACGTTGTATTAATAG
DNA 2: CTATTAATACAACGTCTCAGCCGG
B1: no binding (MAX:MAX (p21) [1]).

B2: E-V1 (dsDNA)
DNA 1: CCGGCTGACACGTTGTATTAATAG
DNA 2: CTATTAATACAACGTGTCAGCCGG
B2: binds (MAX:MAX (p21) [2]).

B3: NE-V3 (dsDNA)
DNA 1: CCGGCTGATACGTAGTATTAATAG
DNA 2: CTATTAATACTACGTATCAGCCGG
B3: no binding (MAX:MAX (p21) [1]).

B4: CME (dsDNA)
DNA 1: CCGGCTGACACGTGGTATTAATAG
DNA 2: CTATTAATACCACGTGTCAGCCGG
B4: binds (MAX:MAX (p21) [3]); binds [4].

B5: Ctrl (dsDNA)
DNA 1: CCGGCTGATTAGCAGTATTAATAG
DNA 2: CTATTAATACTGCTAATCAGCCGG
B5: no binding (MAX:MAX (p21) [3]); no binding [4].

B6: NE-V1 (dsDNA)
DNA 1: CCGGCTGATACGTTGTATTAATAG
DNA 2: CTATTAATACAACGTATCAGCCGG
B6: no binding (MAX:MAX (p21) [1]).

B7: NE (dsDNA)
DNA 1: CCGGCTGAAACGTTGTATTAATAG
DNA 2: CTATTAATACAACGTTTCAGCCGG
With B7 the binding signal (MAX:MAX (p21) [5]) was ~33 fold lower affinity than CME and the binding signal [6] was ~20 fold lower affinity than CME.

B8: NE-V4 (dsDNA)
DNA 1: CCGGCTGAAAGCTTGTATTAATAG
DNA 2: CTATTAATACAAGCTTTCAGCCGG
B8: no binding (MAX:MAX (p21) [1]).
